Reference: patent US20240352110A1 (ROCHE DIAGNOSTICS OPERATIONS, published 2024)

Target: T1, Aβ42 (human, UniProt P05067 672-713)
T1 construct: range 672-713; In the Elecsys experiments it is the native Aβ42 of the plasma sample; also called Ab42; Abeta42
Test: SPR (Biacore 8K+), antibody captured, Aβ42 injected, 37° C., Langmuir 1:1 fit
Procedure: Measurements were performed using the BIAcore™ 8K+ instruments. Aβ-42 concentration series ranging from 1.2 nM to 900 nM were injected at […]. The association phase was monitored for 3 min, the dissociation phase between 5 min to 10 min at 37° C.
The measurements were performed using PBS-DT+, pH7.4 (10 mM phosphate buffer, 2.7 mM KCl, 137 mM NaCl. 5% DMSO, 0.05% Tween 20) as running buffer.
The kinetic rate constants and the dissociation equilibrium constants KD were calculated using a Langmuir 1:1 fit model according Scrubber Version 2.0.c.

T1 sequence (P05067 672-713 limits assumed, form in doubt): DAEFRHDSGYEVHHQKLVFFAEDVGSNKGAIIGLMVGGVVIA

Kd: 6.7 nM
MR (molar ratio): 0.7
koff: 0.0253 s⁻¹
kon: 3.8e+06 M⁻¹ s⁻¹
t/2 diss (complex half-life): < 1 min
B1: Mouse anti Aβ-42 antibody 3.2.52 (IgG2b), expressed in hybridoma (antibody)
heavy: EVQLQQSGPELVKLGASVRVSCRTSGFTITEYTMHWVKQSHGKSLEWIGGINPITGGSRNNLKFKDKATLTGDKSSSTVYMDLRSLTSEGSTVNYCVRGRTMGPLDYWGQGTTLTVSSAKTTPPSVYPLAPGCGDTTGSSVTLGCLVKGYFPESVTVTWNSGSLSSSVHTFPALLQSGLYTMSSSVTVPSSTWPSQTVTCSVAHPASSTTVDKKLEPSGPISTINPCPPCKECHKCPAPNLEGGPSVFIFPPNIKDVLMISLTPKVTCVVVDVSEDDPDVRISWFVNNVEVHTAQTQTHREDYNSTIRVVSALPIQHQDWMSGKEFKCKVNNKDLPSPIERTISKIKGLVRAPQVYILPPPAEQLSRKDVSLTCLVVGFNPGDISVEWTSNGHTEENYKDTAPVLDSDGSYFIYSKLDIKTSKWEKTDSFSCNVRHEGLKNYYLKKTISRSPGK
light: not shown
notes: Full-length mouse IgG2b; Biotinylated when used as capture antibody in Elecsys assays; also called M-3.2.52; clone 3.2.52
